Assay results published in paper PMC11274412, “Characterization of Receptor Binding Affinity for Vascular Endothelial Growth Factor with Interferometric Imaging Sensor” (Biosensors, 2024).

Assays:
Aflibercept (Eylea) [1] = target: T1, Aflibercept (Eylea); test: Interferometric Reflectance Imaging Sensor (IRIS); equilibrium IRIS signal on drug spots against VEGF concentration, fitted with the Langmuir isotherm; conditions: both partners purified
T1 chain: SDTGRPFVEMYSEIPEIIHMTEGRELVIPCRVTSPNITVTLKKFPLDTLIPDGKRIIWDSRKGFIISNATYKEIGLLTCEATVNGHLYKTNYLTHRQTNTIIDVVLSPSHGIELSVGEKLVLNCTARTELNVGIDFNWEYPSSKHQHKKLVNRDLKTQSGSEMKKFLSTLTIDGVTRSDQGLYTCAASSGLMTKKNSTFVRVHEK

Aflibercept (Eylea) [2] = target: T1, Aflibercept (Eylea); test: Interferometric Reflectance Imaging Sensor (IRIS); equilibrium IRIS signal on drug spots against VEGF concentration, fitted with the Langmuir-Freundlich isotherm; conditions: both partners purified

Ka (Aflibercept (Eylea) [1]): 1.05e+09 M⁻¹
Kd (Aflibercept (Eylea) [1]): 17.5 nM
Ka (Aflibercept (Eylea) [2]): 1.5e+08 M⁻¹
Kd (Aflibercept (Eylea) [2]): 66 nM
B1: Recombinant human VEGF165 protein (ligand)
chain: APMAEGGGQNHHEVVKFMDVYQRSYCHPIETLVDIFQEYPDEIEYIFKPSCVPLMRCGGCCNDEGLECVPTEESNITMQIMRIKPHQGQHIGEMSFLQHNKCECRPKKDRARQENPCGPCSERRKHLFVQDPQTCKCSCKNTDSRCKARQLELNERTCRCDKPRR
modifications: disulfide-linked homodimer; N-glycosylated (HEK293 expressed); limits are the conventional mature VEGF165 (191-aa precursor minus 26-aa signal) / human IgG1 Fc (C-terminal, dimerizing …)
